One block for each molecule: values may come before it.
Legend:
[1] = target: anti-CD20 (Rituxan) chimeric antigen receptor ACT2; assay: flow cytometry, panel Donor 4 (δ3-23): cells transduced with the anti-CD20 CAR ACT2, stained with rat anti-Rituximab-FITC; no % sign is printed
[2] = target: anti-CD20 (Rituxan) chimeric antigen receptor ACT2; assay: flow cytometry, panel Donor 3 (δ3-23): cells transduced with the anti-CD20 CAR ACT2, stained with rat anti-Rituximab-FITC; no % sign is printed
[3] = target: anti-CD20 (Rituxan) chimeric antigen receptor ACT2; assay: flow cytometry, panel Donor 4 (δ3-08): cells transduced with the anti-CD20 CAR ACT2, stained with rat anti-Rituximab-FITC; no % sign is printed
[4] = target: recombinant human soluble γ2 δ3TCR-FC (wild type) (human) (UniProt B7Z8K6); assay: Octet, γ2δ3TCR-hFc captured on anti-human Fc biosensor; row antibody δ3-23 taken as first (saturating), column antibody as second; 5 µg/mL each
[5] = target: recombinant human soluble γ2 δ3TCR-FC (wild type) (human) (UniProt B7Z8K6); assay: Octet, γ2δ3TCR-hFc captured on anti-human Fc biosensor; row antibody δ3-42 taken as first (saturating), column antibody as second; 5 µg/mL each
[6] = target: γ2δ3 TCR-hFc mutant S3 (K79L, H88F in the Vδ3 chain) (human) (UniProt B7Z8K6); assay: Luminex beads; TCR-hFc captured by goat anti-human Fc; antibody titrated; extrapolated value, no saturation achieved
[7] = target: γ2δ3 TCR-hFc mutant S11 (K79L, L82K, H88F in the Vδ3 chain) (human) (UniProt B7Z8K6); assay: as above
[8] = target: γ2δ3 TCR-hFc mutant S8 (K79L, E18Q, H88F in the Vδ3 chain) (human) (UniProt B7Z8K6); assay: as above
[9] = target: γ2δ3 TCR-hFc mutant S10 (K3A, K79L, H88T in the Vδ3 chain) (human) (UniProt B7Z8K6); assay: as above
[10] = target: recombinant human soluble γ2 δ3TCR-FC (wild type) (human) (UniProt B7Z8K6); assay: Octet, γ2δ3TCR-hFc captured on anti-human Fc biosensor; row antibody δ3-31 taken as first (saturating), column antibody as second; 5 µg/mL each
[11] = target: recombinant human soluble γ2 δ3TCR-FC (wild type) (human) (UniProt B7Z8K6); assay: Octet, γ2δ3TCR-hFc captured on anti-human Fc biosensor; row antibody δ3-08 taken as first (saturating), column antibody as second; 5 µg/mL each
[12] = target: recombinant human soluble γ2 δ3TCR-FC (wild type) (human) (UniProt B7Z8K6); assay: Luminex beads; TCR-hFc captured by goat anti-human Fc; antibody titrated
[13] = target: γ2δ3 TCR-hFc mutant S5 (D70N, E67Q in the Vδ3 chain) (human) (UniProt B7Z8K6); assay: as above
[14] = target: γ2δ3 TCR-hFc mutant S9 (E67Q, D70N, R75Q, R95Q, E97Q in the Vδ3 chain) (human) (UniProt B7Z8K6); assay: as above
[15] = target: γ2δ3 TCR-hFc mutant S6 (R75Q, R95Q in the Vδ3 chain) (human) (UniProt B7Z8K6); assay: as above
[16] = target: γ2δ3 TCR-hFc mutant S7 (D57N, R65Q in the Vδ3 chain) (human) (UniProt B7Z8K6); assay: as above
[17] = target: γ2δ3 TCR-hFc mutant S1 (D10N in the Vδ3 chain) (human) (UniProt B7Z8K6); assay: as above
[18] = target: γ2δ3 TCR-hFc mutant S2 (D26N, K85L in the Vδ3 chain) (human) (UniProt B7Z8K6); assay: as above
[19] = target: γ2δ3 TCR-hFc mutant S4 (E18Q in the Vδ3 chain) (human) (UniProt B7Z8K6); assay: as above
[20] = target: recombinant human soluble γ2 δ3TCR-FC (wild type) (human) (UniProt B7Z8K6); assay: Octet, γ2δ3TCR-hFc captured on anti-human Fc biosensor; row antibody δ3-58 taken as first (saturating), column antibody as second; 5 µg/mL each; self pair
[21] = target: γ2δ3 TCR-hFc mutant S9 (E67Q, D70N, R75Q, R95Q, E97Q in the Vδ3 chain) (human) (UniProt B7Z8K6); assay: Luminex beads; TCR-hFc captured by goat anti-human Fc; antibody titrated; extrapolated value, no saturation achieved
[22] = target: recombinant human soluble γ2 δ3TCR-FC (wild type) (human) (UniProt B7Z8K6); assay: Octet, γ2δ3TCR-hFc captured on anti-human Fc biosensor; row antibody δ3-58 taken as first (saturating), column antibody as second; 5 µg/mL each
[23] = target: recombinant human soluble γ2 δ3TCR-FC (wild type) (human) (UniProt B7Z8K6); assay: Octet, γ2δ3TCR-hFc captured on anti-human Fc biosensor; row antibody δ3-42 taken as first (saturating), column antibody as second; 5 µg/mL each; self pair
[24] = target: γ2δ3 TCR-hFc mutant S3 (K79L, H88F in the Vδ3 chain) (human) (UniProt B7Z8K6); assay: Luminex beads; TCR-hFc captured by goat anti-human Fc; antibody titrated
[25] = target: γ2δ3 TCR-hFc mutant S11 (K79L, L82K, H88F in the Vδ3 chain) (human) (UniProt B7Z8K6); assay: as above
[26] = target: γ2δ3 TCR-hFc mutant S8 (K79L, E18Q, H88F in the Vδ3 chain) (human) (UniProt B7Z8K6); assay: as above
[27] = target: γ2δ3 TCR-hFc mutant S10 (K3A, K79L, H88T in the Vδ3 chain) (human) (UniProt B7Z8K6); assay: as above
[28] = target: recombinant human soluble γ2 δ3TCR-FC (wild type) (human) (UniProt B7Z8K6); assay: Octet, γ2δ3TCR-hFc captured on anti-human Fc biosensor; row antibody δ3-08 taken as first (saturating), column antibody as second; 5 µg/mL each; self pair
[29] = target: Vδ3 γδ TCR on the surface of human Vδ3 γδ T cells (PBMC-derived, expanded cultures) (human) (UniProt A0JD37); assay: cell-based or functional assay
[30] = target: recombinant human soluble γ2 δ3TCR-FC (wild type) (human) (UniProt B7Z8K6); assay: Octet, γ2δ3TCR-hFc captured on anti-human Fc biosensor; row antibody δ3-23 taken as first (saturating), column antibody as second; 5 µg/mL each; self pair
[31] = target: Vδ3 γδ TCR on the surface of human Vδ3 γδ T cells (PBMC-derived, expanded cultures) (human) (UniProt A0JD37); assay: flow cytometry, lower right panel (δ3-23 Expansion): untransduced Donor 4 cells after αβ T cell depletion, δ3-23 MAb staining (x axis) against anti-TCRαβ (y axis); the gated population lies between about 10^4 and 10^5 on the δ3-23 axis; no % sign is printed
[32] = target: Vδ3 γδ TCR on the surface of human Vδ3 γδ T cells (PBMC-derived, expanded cultures) (human) (UniProt A0JD37); assay: flow cytometry, upper right panel (δ3-08 Expansion): untransduced Donor 4 cells after αβ T cell depletion, δ3-23 MAb staining (x axis) against anti-TCRαβ (y axis); the gated population lies between about 10^4 and 10^5 on the δ3-23 axis; no % sign is printed
[33] = target: Vδ3 γδ TCR on the surface of human Vδ3 γδ T cells (PBMC-derived, expanded cultures) (human) (UniProt A0JD37); assay: flow cytometry on expanded, αβ T cell depleted γδ T cells of Donor 4

Sequence of UniProt A0JD37 (A0JD37 19-113, stated change not applied): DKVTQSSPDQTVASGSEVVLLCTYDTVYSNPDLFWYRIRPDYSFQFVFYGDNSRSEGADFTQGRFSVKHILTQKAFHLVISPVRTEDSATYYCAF

- paired-competition value (Octet signal of the second antibody per paragraph 256) [4]: 0.03
- paired-competition value (Octet signal of the second antibody per paragraph 256) [5]: 0.06
- EC50 [6]: 508 nM
- EC50 [7]: 136 nM
- EC50 [8]: 3370 nM
- EC50 [9]: 336 nM
- paired-competition value (Octet signal of the second antibody per paragraph 256) [10]: 0.37
- paired-competition value (Octet signal of the second antibody per paragraph 256) [11]: 0.22
- EC50 [12]: 0.03 nM
- EC50 [13]: 0.02 nM
- EC50 [14]: 0.05 nM
- EC50 [15]: 0.02 nM
- EC50 [16]: 0.04 nM
- EC50 [17]: 0.02 nM
- EC50 [18]: 0.03 nM
- EC50 [19]: 0.02 nM
- paired-competition value (Octet signal of the second antibody per paragraph 256) [20]: 0.03
B1: δ3-58 (antibody, V domains shown)
VH: EVKLVESGGGLVQPGGSLKLSCAASGFTFSSYAMSWVRQTPEKRLEWVAYIRDGGGGTYYPDTVEGRFTISRDNAKNTLYLQMSSLKSEDTAMYYCARHPPMNDWFLYWGQGTLVTVSA
VL: DIQMTQSPASLSVSVGETVTITCRASENIYSHLAWYQQKQGKSPQLLVYAATNLADGVPSRFSGSGSGTQYSLKINSLQSEDFGSYYCQHFWGTPYTFGGGTKLEIKR

- paired-competition value (Octet signal of the second antibody per paragraph 256) [4]: 0.04
- EC50 [6]: 106 nM
- EC50 [21]: 49.3 nM
- EC50 [7]: 199 nM
- EC50 [8]: 258 nM
- EC50 [9]: 449 nM
- paired-competition value (Octet signal of the second antibody per paragraph 256) [10]: 0.35
- paired-competition value (Octet signal of the second antibody per paragraph 256) [22]: 0.03
- paired-competition value (Octet signal of the second antibody per paragraph 256) [11]: 0.21
- EC50 [12]: 0.05 nM
- EC50 [13]: 0.08 nM
- EC50 [15]: 0.13 nM
- EC50 [16]: 0.15 nM
- EC50 [17]: 0.07 nM
- EC50 [18]: 0.17 nM
- EC50 [19]: 0.05 nM
- paired-competition value (Octet signal of the second antibody per paragraph 256) [23]: 0.04
B2: δ3-42 (antibody, V domains shown)
VH: DVQLQESGPDLVKPSQSLSLTCTVTGYSITSGYNWHWIRQFPGNKLEWMGYIHYSGNTDYNPSLRSRISITRDTSKNQFFLHLNSVPTEDTATYYCARSGITTDWYFDVWGAGTTVTVSS
VL: QIVLSQSPAILSASPGEKVTMTCRASSSVNYMHWYQQKPGSSPKPWIYATSNLASGVPARFSGSGSGTSYSLTISKVEAEDAATYYCQQWSSHQPTFGAGTKLELK

- share of non-Vδ1/non-Vδ2 γδ T cells in the culture on Day 21, Donor 1 [29]: < 41%
- paired-competition value (Octet signal of the second antibody per paragraph 256) [5]: 0.12
- paired-competition value (Octet signal of the second antibody per paragraph 256) [30]: 0.06
- percent of cells in the Vd3+ gate [31]: 95%
- EC50 [6]: 137 nM
- EC50 [7]: 112 nM
- EC50 [8]: 95.8 nM
- EC50 [9]: 117 nM
- paired-competition value (Octet signal of the second antibody per paragraph 256) [10]: 0.48
- paired-competition value (Octet signal of the second antibody per paragraph 256) [22]: 0.07
- paired-competition value (Octet signal of the second antibody per paragraph 256) [11]: 0.29
- EC50 [12]: 0.04 nM
- EC50 [13]: 0.04 nM
- EC50 [14]: 0.05 nM
- EC50 [15]: 0.04 nM
- EC50 [16]: 0.04 nM
- EC50 [17]: 0.04 nM
- EC50 [18]: 0.04 nM
- EC50 [19]: 0.06 nM
- percent of cells in the Vd3+ gate [32]: 95.5%
- % of non-Vδ1/non-Vδ2 cells stained positive [33]: > 95%
B4: δ3-23 (antibody, V domains shown)
VH: EVQLQQSGAELVKPGASVKLSCTASGFNIRDTYMHWVKQRPEQGLEWIGRIDPANGNTKYDPKFRGKATITADTSSNTAYLQLSSLTSEGTAVYYCSEGIYFDYWGQGTTLTVSS
VL: DILLTQSPAILSVSPGERVSFSCRASQNIGTIIHWYQQRANGSPRLLIKYASESISGIPSRFSGSGSGTDFTLSINSVESEDIADYYCQQSNSWPYTFGGGTKLEIKR

Continued, molecule first:

Molecule: aRitxmab-FITC (antibody)
- percent of cells in the CAR+ gate [1]: 73.5%
- percent of cells in the CAR+ gate [2]: 83.1%
- percent of cells in the CAR+ gate [3]: 70.7%

B3: δ3-08 (antibody, V domains shown)
VH: EEKLEESGGGLVQPGGSMKLSCVASGFIFSIYWMNWVRQSPEKGLEWVGQIRLKSDNYATHYAESVKGRFTISRDDSKSSVYLQMNNLRAEDTGIYYCMYYGSSYERFAYWGQGTLVTVSA
VL: DIQMIQSPASLSVSVGETVTITCRASENIYSNLAWYQQKQGKSPQLLVYVATKLADGVPSRFSGSGSGTQYSLKINSLQSEDFGSYYCQHFWGTPPWTFGGGTKLEIK
- paired-competition value (Octet signal of the second antibody per paragraph 256) [4]: 0.04
- paired-competition value (Octet signal of the second antibody per paragraph 256) [10]: 0.24
- paired-competition value (Octet signal of the second antibody per paragraph 256) [22]: 0.04
- EC50 [24]: 0.05 nM
- EC50 [12]: 0.06 nM
- EC50 [13]: 0.05 nM
- EC50 [14]: 0.07 nM
- EC50 [15]: 0.06 nM
- EC50 [16]: 0.07 nM
- EC50 [25]: 0.03 nM
- EC50 [26]: 0.04 nM
- EC50 [17]: 0.08 nM
- EC50 [18]: 0.07 nM
- EC50 [19]: 0.06 nM
- EC50 [27]: 2.5 nM
- paired-competition value (Octet signal of the second antibody per paragraph 256) [28]: 0.16

From US12221480
